Test results from patent publication US20220332804A1 (CSL INNOVATION, published 2022).

Experiments:
Assay in all cases: SPR, mAb captured, C2 mutant analyte;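 further: Anti-C2 mAbs captured on goat anti-human IgG Biacore CM5 chips, alanine or serine C2 surface mutants flowed over at 37 °C, double-referenced sensorgrams fitted to a 1:1 binding model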
human C2 F689A = target: T1, human C2 F689A (human, UniProt P06681 21-752)
T1 sequence: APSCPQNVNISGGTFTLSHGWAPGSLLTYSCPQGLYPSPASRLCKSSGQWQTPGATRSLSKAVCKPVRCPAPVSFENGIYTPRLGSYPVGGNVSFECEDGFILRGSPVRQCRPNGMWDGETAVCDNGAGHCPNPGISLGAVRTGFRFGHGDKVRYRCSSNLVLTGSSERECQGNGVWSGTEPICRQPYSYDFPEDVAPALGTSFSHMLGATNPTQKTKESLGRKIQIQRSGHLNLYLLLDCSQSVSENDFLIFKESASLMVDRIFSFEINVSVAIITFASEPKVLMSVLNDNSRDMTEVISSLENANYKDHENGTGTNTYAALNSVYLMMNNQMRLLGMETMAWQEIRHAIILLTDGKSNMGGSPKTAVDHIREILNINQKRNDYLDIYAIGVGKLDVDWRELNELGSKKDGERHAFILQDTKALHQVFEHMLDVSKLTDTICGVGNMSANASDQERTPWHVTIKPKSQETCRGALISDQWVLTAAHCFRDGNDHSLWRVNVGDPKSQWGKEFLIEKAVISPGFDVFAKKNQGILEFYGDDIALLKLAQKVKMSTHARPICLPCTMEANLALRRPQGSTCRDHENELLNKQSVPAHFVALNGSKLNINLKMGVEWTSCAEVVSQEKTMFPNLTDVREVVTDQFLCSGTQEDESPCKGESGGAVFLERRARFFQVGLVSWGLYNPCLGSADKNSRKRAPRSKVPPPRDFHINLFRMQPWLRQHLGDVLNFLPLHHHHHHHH

human C2 R434A = target: T2, human C2 R434A (human, UniProt P06681 21-752)
T2 sequence: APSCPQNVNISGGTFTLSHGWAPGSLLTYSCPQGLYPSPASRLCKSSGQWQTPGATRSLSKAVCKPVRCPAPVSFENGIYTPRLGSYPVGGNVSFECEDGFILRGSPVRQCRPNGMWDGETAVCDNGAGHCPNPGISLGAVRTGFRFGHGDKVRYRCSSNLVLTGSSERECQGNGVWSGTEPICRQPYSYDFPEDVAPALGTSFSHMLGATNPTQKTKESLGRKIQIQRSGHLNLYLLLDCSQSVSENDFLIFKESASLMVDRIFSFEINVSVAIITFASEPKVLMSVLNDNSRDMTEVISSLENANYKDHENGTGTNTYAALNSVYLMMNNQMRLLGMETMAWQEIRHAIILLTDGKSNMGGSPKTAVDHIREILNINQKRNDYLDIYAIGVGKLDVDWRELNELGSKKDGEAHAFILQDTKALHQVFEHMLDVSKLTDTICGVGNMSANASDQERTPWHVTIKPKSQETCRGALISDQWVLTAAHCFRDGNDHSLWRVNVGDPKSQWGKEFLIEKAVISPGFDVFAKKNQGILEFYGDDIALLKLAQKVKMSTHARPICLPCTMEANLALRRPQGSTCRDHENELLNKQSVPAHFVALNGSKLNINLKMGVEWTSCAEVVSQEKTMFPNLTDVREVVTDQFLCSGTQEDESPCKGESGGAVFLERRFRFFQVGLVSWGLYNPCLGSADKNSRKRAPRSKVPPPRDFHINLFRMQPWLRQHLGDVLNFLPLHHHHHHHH

human C2 M316A = target: T3, human C2 M316A (human, UniProt P06681 21-752)
T3 sequence: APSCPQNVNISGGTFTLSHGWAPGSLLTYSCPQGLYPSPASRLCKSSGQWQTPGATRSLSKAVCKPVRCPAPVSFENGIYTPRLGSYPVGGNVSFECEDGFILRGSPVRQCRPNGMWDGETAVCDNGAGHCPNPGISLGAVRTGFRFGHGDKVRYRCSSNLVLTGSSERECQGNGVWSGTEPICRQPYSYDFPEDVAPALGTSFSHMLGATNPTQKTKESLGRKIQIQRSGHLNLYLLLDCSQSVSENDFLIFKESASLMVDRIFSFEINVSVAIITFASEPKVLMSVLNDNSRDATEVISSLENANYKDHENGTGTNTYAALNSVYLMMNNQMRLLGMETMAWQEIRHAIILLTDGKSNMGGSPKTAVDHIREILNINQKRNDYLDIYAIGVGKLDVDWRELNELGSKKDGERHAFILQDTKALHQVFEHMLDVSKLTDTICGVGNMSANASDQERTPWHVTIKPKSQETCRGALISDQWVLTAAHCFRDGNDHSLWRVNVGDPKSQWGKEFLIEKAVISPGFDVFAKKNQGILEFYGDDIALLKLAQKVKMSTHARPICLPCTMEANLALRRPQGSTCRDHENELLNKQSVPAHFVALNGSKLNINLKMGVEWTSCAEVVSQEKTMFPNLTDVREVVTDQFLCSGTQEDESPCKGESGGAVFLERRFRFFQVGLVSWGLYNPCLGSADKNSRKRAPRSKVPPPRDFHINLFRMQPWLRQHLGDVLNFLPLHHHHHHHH

human C2 G432A = target: T4, human C2 G432A (human, UniProt P06681 21-752)
T4 sequence: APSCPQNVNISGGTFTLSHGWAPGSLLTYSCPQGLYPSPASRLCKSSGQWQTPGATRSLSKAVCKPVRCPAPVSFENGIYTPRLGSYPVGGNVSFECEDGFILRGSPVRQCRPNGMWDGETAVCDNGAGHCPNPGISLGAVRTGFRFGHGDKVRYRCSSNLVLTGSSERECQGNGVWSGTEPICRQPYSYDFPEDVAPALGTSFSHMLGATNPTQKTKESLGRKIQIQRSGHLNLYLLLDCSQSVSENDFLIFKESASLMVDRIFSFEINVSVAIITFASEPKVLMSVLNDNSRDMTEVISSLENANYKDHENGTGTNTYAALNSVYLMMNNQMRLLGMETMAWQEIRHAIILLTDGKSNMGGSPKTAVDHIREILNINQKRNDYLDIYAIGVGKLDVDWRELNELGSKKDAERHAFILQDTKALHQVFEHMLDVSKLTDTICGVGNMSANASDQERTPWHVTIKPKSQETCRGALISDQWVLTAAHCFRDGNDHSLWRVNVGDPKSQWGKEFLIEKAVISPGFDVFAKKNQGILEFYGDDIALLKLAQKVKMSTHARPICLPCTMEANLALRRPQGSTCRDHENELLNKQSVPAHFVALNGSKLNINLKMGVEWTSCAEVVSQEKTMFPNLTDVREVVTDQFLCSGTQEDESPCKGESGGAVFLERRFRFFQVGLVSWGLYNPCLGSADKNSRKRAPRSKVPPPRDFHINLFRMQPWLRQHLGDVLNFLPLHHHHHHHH

Kd (human C2 F689A): 36.5 nM
Kd (human C2 R434A): 230 nM
Kd (human C2 M316A): 30.2 nM
Kd (human C2 G432A): 26 nM
B1: RF16-214 (antibody, V domains shown)
VH: EVQLLESGGGLVQPGGSLRLSCAASGFTFSWYQMMWVRQAPGKGLEWVSRIYPSGGGTAYADSVKGRFTISRDNSKNTLYLQMNSLRAEDTAVYYCARDAGYGDNWGQGTLVTVSS
VL: QSALTQPPSVSVSPGQTASITCSGDKLGEKYASWYQQKAGQSPVMVIYQDRKRPSGIPERFSGSNSGNTATLTISGTQAMDEADYYCQAWDTRAVVFGGGTKLTVLG
